Source: patent publication US11261449B2, “Anti-cancer RNA aptamers” (CITY OF HOPE, priority 2015, dated 2022)

B1: P19: 2′F RNA aptamer selected by whole cell SELEX on Panc-1, SEQ ID NO:2 (nucleic acid)
chain: GGGAGACAAGAAUAAACGCUCAAUGGCGAAUGCCCGCCUAAUAGGGCGUUAUGACUUGUUGAGUUCGACAGGAGGCUCACAACAGGC
modifications: all phosphodiester, sugars by position and methylation of C not given here; 2'-fluoro modified RNA
B2: P1: 2′F RNA aptamer selected by whole cell SELEX on Panc-1, SEQ ID NO:4 (nucleic acid)
chain: GGGAGACAAGAAUAAACGCUCAAUGCGCUGAAUGCCCAGCCGUGAAAGCGUCGAUUUCCAUCCUUCGACAGGAGGCUCACAACAGGC
modifications: all phosphodiester, sugars by position and methylation of C not given here; 2'-fluoro modified RNA

What was measured:
pancreatic cancer = conditions: cited from earlier work
[1] = tested on: pancreatic cell lines PANC-1, AsPC-1, MIA PaCa and Capan-1; test: Live cell confocal internalization in pancreatic cancer cell lines; assay type: cell-based, human; conditions: Cy3-labeled RNA 100 nM
Procedure: (§1) For the internalization, the cells were grown in 35 mm glass bottom dishes (MatTek, Ashland, Mass., USA) with seeding at 1×10^5 cells in medium for 24 hrs. The RNAs were labeled with Cy3 using the Cy3 Silencer siRNA labeling kit (Ambion, Tex., USA.). Cy3-labeled RNAs at 100 nM were added to the cells and incubated for 1 hour. The images were taken using a Zeiss LSM 510 Meta Inverted 2 photon confocal microscope system using a C-Apo 40×/1.2 NA Water immersion objective.

Panc-1 = test: Binding to Panc-1 cells by flow cytometry with Cy3-labeled aptamers (KD); design: species or system human; conditions: Cy3 labeled aptamers 15.6-500 nM, MFI, one site binding non-linear regression; read-out: binding affinity (Kd)
Procedure: Aptamer binding and uptake was also assessed by flow cytometry. For the assay, cells were detached using a non-enzymatic cell dissociation solution, washed with PBS and suspended in binding buffer. Next, Cy3-labeled aptamers were added and incubated for 1 hours at 37° C. The binding of individual aptamers for the starting pool as a control to pancreatic cancer cells was performed in triplicate. Flow cytometry was performed on a Cyan (Beckman Coulter counter) and Fortessa. The data were analyzed with FlowJo software.
To determine the binding affinity of aptamers to Panc-1, the median fluorescence intensity (MFI) of each concentrations was determined and subtracted the mean fluorescence background of controls from the corresponding MFI of aptamers described by Sefah et al^53. The dissociation constants were calculated using one site binding non-linear curve regression with a Graph Pad Prism (GraphPad Software, La Jolla, Calif., USA).

[2] = tested on: Non pancreatic lines including Huh7, HepG2, MCF7 and PC3 cells; test: Confocal internalization / cell binding in non pancreatic cancer lines; assay type: cell-based; conditions: Cy3-labeled RNA, liver, breast and prostate cancer lines
Procedure: as §1

Panc-1 engrafted mice = test: Anti-tumor effects in Panc-1 (PANC-Luc) engrafted NOD/SCID mice; assay type: in vivo; conditions: P19 conjugates 1 nmol tail vein; gemcitabine 3 mg I.P.; listed as Gemcitabine
Procedure: To establish the traceable tumor animal models, subcutaneous implantations were performed by injecting 25 μl of a monocellular suspension containing 10^6 Panc-1 cell with luciferase expression (PANC-Luc) cells and a 25p growth factor reduced matrigel matrix (BD Biosciences, USA) under the dorsal skin of 6-week-old female NOD/SCID mice (BioLasco Co., Taiwan). The firefly luciferase fragment was inserted into the pcDNA-3.1(+) backbone encoding ampicillin resistance for selection in bacteria and neo gene for selection in mammalian cells. The recombinant constructs for stable cell line were purified using plasmid midi kit (QIAGEN, USA). PANC-1 cells were transfected with recombinant constructs for 24 h. The following day, culture medium was replaced with standard medium containing 1.2 mg/mL G418 (Merck, Germany) for stable clone selection. […] Luciferase expression was assessed using the Luciferase Assay System. […] Tumor growth was monitored by evaluating bioluminescence using the spectrum of IVIS 200 before first injection and one week after last injection. […] The mice were imaged in the spectrum of IVIS 200 and bioluminescent signals were analyzed using Living Image Software (Caliper Life Sciences, Alameda, Calif.). Tumor size was measured by ruler and calculated by the formula 0.52*length*width*width

[3] = Cytotoxicity compared with gemcitabine (hemoglobin, WBC, neutrophil, platelet counts); assay type: in vivo; conditions: engrafted mice
Procedure: FIG. 5A-5F. In vivo experiments. (FIG. 5A) The conjugates of P19 and P1 was injected via tail vein injection in Panc-1 engrafted mice. The conjugates were injected day 1, 3 and 5 for 3 or 4 weeks. Student t-test (unpaired, two-tailed) was used for statistical analysis. *t-test: […] (FIG. 5B) The photon was counter by I.V.I.S and signal changes were calculated in traceable xenoengrafted mice. (FIG. 5C) The representative images of the spectrum of IVIS 200 of each group. (FIG. 5D) Comparison of anti-tumor effect of C/EBPα-saRNA with gemcitabine in Panc-1 engrafted mice by tail vein injection. Tumor size was measured. *t-test: […] (FIG. 5E) The tumor growth inhibition of gemcitabine-resistant ASPC-1 engrafted mice by tail vein injection. Signal changes were calculated. Metastasis to ascites was measured. *t-test: […] (FIG. 5F) Comparison of cytotoxicity with gemcitabine. Hemoglobin, WBC, neutrophil and platelet were counted.

[4] = tested on: gemcitabine-resistant ASPC-1 engrafted mice; test: Gemcitabine resistant AsPC-1 tumor in NOD/SCID mice; assay type: in vivo; conditions: tail vein, 4 injections at days 1, 3, 5, 7, sacrificed day 9
Procedure: (§2) For gemcitabine resistant tumour test, twelve 5-weeks-old female NOD/SCID mice were injected subcutaneously (S.C.) on the flank with 2.8×10^6 AsPC-1 pancreatic cancer cells in 0.05 ml PBS with 0.15 ml matrigel. After 3 weeks, mice were divided into four groups. One group served as untreated controls and the others injected with P1 (10 ug per injection), P19 (10 ug per injection) and P1 combined with P19 (5 ug of P1 with 5 ug of P19 per injection). Aptamer were injected through tail vein. Animals were injected 4 times at days 1, 3, 5, and 7, and were sacrificed at day 9.
as §2, with “To test chemoresistant tumor regression in mice,” for “For gemcitabine resistant tumour test,”, “ASPC-1 gemcitabine resistant” for “AsPC-1”, “P1,” for “P1 (10 ug per injection),”, “P19” for “P19 (10 ug per injection)”, “P19.” for “P19 (5 ug of P1 with 5 ug of P19 per injection).”

[5] = target: T1, mortalin (mitochondrial Hsp70) (Homo sapiens, UniProt P38646); test: Gel shift assay; assay type: binding; conditions: native PAGE
T1 sequence (P38646 47-679): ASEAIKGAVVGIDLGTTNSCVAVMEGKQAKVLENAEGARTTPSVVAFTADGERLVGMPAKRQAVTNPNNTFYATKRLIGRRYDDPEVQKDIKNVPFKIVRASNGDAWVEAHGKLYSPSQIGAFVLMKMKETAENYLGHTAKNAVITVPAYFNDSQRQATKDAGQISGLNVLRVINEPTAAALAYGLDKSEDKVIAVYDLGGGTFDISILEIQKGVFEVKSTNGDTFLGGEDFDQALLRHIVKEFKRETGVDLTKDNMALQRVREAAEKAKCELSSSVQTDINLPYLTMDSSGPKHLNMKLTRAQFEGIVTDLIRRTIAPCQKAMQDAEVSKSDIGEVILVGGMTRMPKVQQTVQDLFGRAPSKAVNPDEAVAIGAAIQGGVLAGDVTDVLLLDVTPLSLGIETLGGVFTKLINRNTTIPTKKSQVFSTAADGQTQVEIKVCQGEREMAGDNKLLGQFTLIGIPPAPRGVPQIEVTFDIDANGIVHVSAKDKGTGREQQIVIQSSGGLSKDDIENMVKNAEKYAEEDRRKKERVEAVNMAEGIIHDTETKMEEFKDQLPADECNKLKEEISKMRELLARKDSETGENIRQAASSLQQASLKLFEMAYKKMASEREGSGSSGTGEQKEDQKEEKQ
Excerpt: (§3) P1 and P19 were labeled with biotin at the 3′ end. Target membrane proteins were isolated following procedures described by Daniels et al^26 or extracted by ProteoExtract Native Membrane protein Extraction Kit (Calbiochem). Agilent 6520 Q-TOF mass spectrometer used to identify aptamer retrieved proteins. A BIAcore T100 (GE Healthcare, Uppsala, Sweden) was used to measure binding by surface plasmon resonance (SPR) technique. BIAevaluation software (GE Healthcare) was used for analysis. Gel shift assay was also performed to validate the target ligand binding.

[6] = tested on: human pancreatic cancer and normal pancreas tissue specimens; test: Histopathology staining with Cy3 labeled aptamers, aptamer score; conditions: for No. of Patients, Low (<7) staining / No. of Patients, Medium (>7 and <14) staining / No. of Patients, High (>14 and <20) staining: 72 patient samples; for No. of Patients, Low (<7) staining: aptamer score <7; for No. of Patients, Medium (>7 and <14) staining: aptamer score >7 and <14; for No. of Patients, High (>14 and <20) staining: aptamer score >14 and <20; for recognition of pancreatic cancer versus normal pancreas tissues: Cy3 labeled aptamer, histopathology; for Survival Period, High (>14 and <20) staining group / Survival Period, Low (<7) staining group / Survival Period, Medium (>7 and <14) staining group: Table 5, Mean ± SD
Procedure: The samples were stained by aptamer P1 and P19 respectively. We linked P1 and P19 with Cy3 as marker and DAPI stating was performed for cell nuclei as background. The sample sections were then examined under microscope at 100× magnification, and the aptamer content in each slide of pancreatic cancer was determined by measuring the average of positive-stained particle numbers in five independent fields randomly.
A total of 72 patients (45 male and 27 female) of pancreatic adenocarcinoma had undergone surgical intervention between January 2008 and December 2010 in National Taiwan University Hospital. Diagnosis was settled by pathologic analysis of specimen. All of the enrolled patients fulfilled the informed consent to receive the procedure, and this study was Institutional Review Board approved of NTUH.

[7] = target: T1, mortalin (mitochondrial Hsp70); test: Surface plasmon resonance (BIAcore T100); assay type: binding; conditions: aptamer biotin-labeled at 3′ end immobilized on SA chip
Excerpt: as §3

Panc-1 cells = test: Competition of Cy3 labeled P19 with unlabeled clones, confocal; assay type: binding, human; conditions: 200 nM Cy3 labeled P19, 1 μM unlabeled clone
Procedure: For competition assays, 200 nM of Cy3 labeled P19 aptamer was used to compete with either unlabeled clones (1 μM). The fluorescence intensity was quantified in the presence of increasing amounts of competitors using confocal microscopy and analyzed statistically. One-way ANOVA was used for statistical significant analysis (P<0.05).

cell membrane proteins = target: T2, cell membrane proteins (Homo sapiens, UniProt P38646); test: Retrieval of cell membrane proteins by biotinylated aptamers and MASS-SPEC; conditions: peptide matching fingerprinting
T2 construct: cell membrane proteins were retrieved by biotinylated aptamers; endogenous in cells
T2 sequence (P38646 47-679): as above
Excerpt: as §3

[8] = tested on: normal tissues such as liver, spleen, and kidney; T and B cells; test: Staining of other normal tissues and T and B cells; design: species or system human; conditions: Cy3 labeled aptamer
Procedure: FIG. 2A-2B. Histology (FIG. 2A) The representative images by histopathological screen in normal tissues. The samples were stained with Cy3 labeled aptamer P1 and P19 respectively. The sample sections were then examined under microscope at 100× magnification. Cy3-labeled RNA. (FIG. 2B) Flow cytometry analysis of P19 and P1 in T and B cells. Cy3-labeled RNAs were tested for binding to T and B cell isolated from human blood.

| Molecule | internalization in pancreatic cancer cells [1] | Kd (Panc-1) [nM] | internalization / binding in non pancreatic cancer lines [2] | anti-tumor effect of aptamers only (tumor size) [4] | gel shift [5] | No. of Patients, Low (<7) staining [6] | No. of Patients, Medium (>7 and <14) staining [6] | No. of Patients, High (>14 and <20) staining [6] | recognition of pancreatic cancer versus normal pancreas tissues [6] | Survival Period, High (>14 and <20) staining group [6] | Survival Period, Low (<7) staining group [6] | Survival Period, Medium (>7 and <14) staining group [6] | binding by SPR [7] | target ligand identified (cell membrane proteins) | staining of other normal tissues including T and B cells [8] | other results |
| --- | --- | --- | --- | --- | --- | --- | --- | --- | --- | --- | --- | --- | --- | --- | --- | --- |
| C#Cc1cccc(Nc2ncnc3cc(OCCOC)c(OCCOC)cc23)c1 [erlotinib] |  |  |  |  |  |  |  |  |  |  |  |  |  |  |  | median added to overall survival (pancreatic cancer; addition of erlotinib, randomized study): 11 days; survival benefit (pancreatic cancer; phase III trial of erlotinib with gemcitabine, advanced disease): marginal survival benefit |
| truncated P19: P19 truncated to 28mer including the common motif GAAUGCCC, SEQ ID NO:1 (CUCAAUGGCGAAUGCCCGCCUAAUAGGG; listed as RNA, chemistry not fully specified) | internalized into Panc-1 and AsPC-1 cells | 8.77 | negative reaction |  |  |  |  |  |  |  |  |  |  |  |  |  |
| Nc1ccn([C@@H]2O[C@H](CO)[C@@H](O)C2(F)F)c(=O)n1 [gemcitabine, 4-amino-1-(2-deoxy-2,2-difluoro-β-D-erythro-pentofuranosyl)pyrimidin-2(1H)-on] |  |  |  |  |  |  |  |  |  |  |  |  |  |  |  | 1-year survival rate (pancreatic cancer; single agent, improved from 16): 19%; anti-tumor effects compared with PBS group (Panc-1 engrafted mice): failed to reduce tumor growth; cytotoxicity (hemoglobin, WBC, neutrophil, platelet) [3]: cytotoxicity such as reduction of hemoglobin and neutrophils; cytotoxicity (hemoglobin, WBC, neutrophil, platelet) ([3]; listed as Gemcitabine): cytotoxicity on RBCs and neutrophils |
| B1 | punctate regions of Cy3 labeling | 13.1 | No Cy3 signal was observed | anti-tumor effects in gemcitabine resistance tumour cells significantly | shifted band was observed | 3 | 26 | 43 | recognized pancreatic cancer tissues specifically, not normal pancreas tissues | 13.0 ± 4.29 | 21.0 ± 2.64 | 15.6 ± 3.30 | bound to the mortalin | mitochondrial Hsp70 which is mortalin | negative staining | fluorescence intensity of labeled P19 in presence of unlabeled competitor (Panc-1 cells): significantly decreased |
| B2 | punctate regions of Cy3 labeling | 2.2 | No Cy3 signal was observed | anti-tumor effects in gemcitabine resistance tumour cells significantly | shifted band was observed | 3 | 26 | 43 | recognized pancreatic cancer tissues specifically, not normal pancreas tissues | 13.1 ± 4.36 | 21.0 ± 2.64 | 15.9 ± 3.17 | bound to the mortalin | mitochondrial Hsp70 which is mortalin | negative staining | survival period, medium level group [6]: 15.9±3.17 months |
